Where “and” joins values, the source holds several entries; their conditions need not be identical. Equal values may be shown once.
How the values were obtained:
[1] = biological target: Aβ42 F19,20T/I31P MRF (AβMRF carrying the triple mutation Phe19,20Thr and Ile31Pro in its Aβ42 portion) (not stated | S. cerevisiae) (UniProt P05453); assay: SDS electrophoresis of SDS-stable oligomers with immunoblot; yeast lysates treated with 1% SDS for 7 min at room temperature, resolved in 1.5% agarose or 7.5% polyacrylamide gels, blotted with anti-RF (BE4) or anti-Aβ (6E10); cells also grown with 6.3 mM guanidine or with HSP104 deleted; densitometry
[2] = biological target: AβMRF (met-Aβ42-HA-M-3xHA-RF; Aβ42 fused to the N terminus of Sup35p MRF) (not stated | S. cerevisiae) (UniProt P05453); assay: as above

Row | stoichiometry N [1] | monomer's share of the pool (HSP104 WT cells) [2] [%] | monomer's share of the pool (hsp104Δ cells) [2] [%] | stoichiometry N [2] | Substance
1 | 2 | – | – | – | Aβ42 F19,20T/I31P MRF (AβMRF carrying the triple mutation Phe19,20Thr and Ile31Pro in its Aβ42 portion) (from UniProt P05453 124-685)
2 | – | 34 | 47 | 2 and 3 and 4 | AβMRF (met-Aβ42-HA-M-3xHA-RF; Aβ42 fused to the N terminus of Sup35p MRF) (from UniProt P05453 124-685)

— publication PMC1594584
